Patent publication US20230212319A1, “NOVEL ANTIGEN BINDING DOMAINS AND SYNTHETIC ANTIGEN RECEPTORS INCORPORATING THE SAME” (University of Southern California, priority 2020, published 2023)

Experiments:
Assay type in all cases: cell-based
RAJI cells = test: JNG assay, co-culture with RAJI cells; conditions: JNG cells expressing construct, co-culture with Raji
Method in brief: (§1)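 Jurkat-NFAT-GFP (JNG) cells stably expressing SAR constructs via lentiviral transduction and puromycin/blasticidin selection were cocultured with target cells at E:T ~1:2 for ~4–18 h. NFAT-driven GFP was measured by FACS versus parental JNG cells; scores +/- to 5+ denote ~5–50% GFP-positive cells.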

L363 cells = test: JNG assay, co-culture with L363 cells; conditions: co-culture with L363
Method in brief: as §1

Nalm6 cells = test: JNG assay, co-culture with Nalm6 cells; conditions: co-culture with Nalm6
Method in brief: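 Drug-selected populations of SAR-expressing Jurkat-NFAT-GFP cells meet target cells (about 1:2 E:T) for roughly 4–18 h. Flow cytometry gives % GFP+ cells, graded +/- to 5+ (≈5% to ≈50%) relative to the parental control.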

B1: 22067 (protein)
chain: MALPVTALLLPLALLLHAARPQLQLQESGPGLVKPSETLSLTCTVSGDSISSGDYYWGWIRQPPGKGLEWIGHIYYSGVTYYNPSLKSRVTISVDTSRNQFSLKLSSVTAADTAVYYCTREDSSNWRSRGQGTLVTVSSLEAAAKEDLKNVFPPEVAVFEPSEAEISHTQKATLVCLATGFYPDHVELSWWVNGKEVHSGVCTDPQPLKEQPALNDSRYCLSSRLRVSATFWQNPRNHFRCQVQFYGLSENDEWTQDRAKPVTQIVSAEAWGRADCGFTSESYQQGVLSATILYEILLGKATLYAVLVSALVLMAMVKRKDSRGRAKRSGSGATNFSLLKQAGDVEENPGPTSMDWIWRILFLVGAATGAHSFEVQLLESGGGLIQPGGSLRLSCAASGFTFSSHAMTWVRQAPGKGLEWVSAISGSGDYTHYADSVKGRFTISRDNSKNTVYLQMNSLRAEDSAVYYCAKDEDGGSLLGHRGQGTLVTVSSTRIQNPDPAVYQLRDSKSSDKSVCLFTDFDSQTNVSQSKDSDVYITDKCVLDMRSMDFKSNSAVAWSNKSDFACANAFNNSIIPEDTFFPSPESSCDVKLVEKSFETDTNLNFQNLSVIGFRILLLKVAGFNLLMTLRLWSSRAKRSGSGVKQTLNFDLLKLAGDVESNPGPSRGHMTEYKPTVRLATRDDVPRAVRTLAAAFADYPATRHTVDPDRHIERVTELQELFLTRVGLDIGKVWVADDGAAVAVWTTPESVEAGAVFAEIGPRMAELSGSRLAAQQQMEGLLAPHRPKEPAWFLATVGVSPDHQGKGLGSAVVLPGVEAAERAGVPAFLETSAPRNLPFYERLGFTVTADVEVPEGPRTWCMTRKPGA
- NFAT-GFP ASSAY: Raji (RAJI cells): +/- (refer to approximately 5%, 10%, 20%, 30%, 40% and 50% GFP positive cells)
- NFAT-GFP ASSAY: L363 (L363 cells): + (refer to approximately 5%, 10%, 20%, 30%, 40% and 50% GFP positive cells)
- NFAT-GFP ASSAY: Nalm6 (Nalm6 cells): +/- (refer to approximately 5%, 10%, 20%, 30%, 40% and 50% GFP positive cells)

B2: 22072 (protein)
chain: MALPVTALLLPLALLLHAARPQLQLQESGPGLVKPSETLSLTCTVSGDSISSGDYYWGWIRQPPGKGLEWIGHIYYSGVTYYNPSLKSRVTISVDTSRNQFSLKLSSVTAADTAVYYCTREDSSNWRSRGQGTLVTVSSLEGQPKANPTVTLFPPSSEELQANKATLVCLISDFYPGAVTVAWKADGSPVKAGVETTKPSKQSNNKYAASSYLSLTPEQWKSHRSYSCQVTHEGSTVEKTVAPTECSPIKTDVITMDPKDNCSKDANDTLLLQLTNTSAYYMYLLLLLKSVVYFAIITCCLLRRTAFCCNGEKSRAKRSGSGATNFSLLKQAGDVEENPGPTSMDWIWRILFLVGAATGAHSFEVQLLESGGGLIQPGGSLRLSCAASGFTFSSHAMTWVRQAPGKGLEWVSAISGSGDYTHYADSVKGRFTISRDNSKNTVYLQMNSLRAEDSAVYYCAKDEDGGSLLGHRGQGTLVTVSSTRIQNPDPAVYQLRDSKSSDKSVCLFTDFDSQTNVSQSKDSDVYITDKCVLDMRSMDFKSNSAVAWSNKSDFACANAFNNSIIPEDTFFPSPESSCDVKLVEKSFETDTNLNFQNLSVIGFRILLLKVAGFNLLMTLRLWSSRAKRSGSGVKQTLNFDLLKLAGDVESNPGPSRGHMTEYKPTVRLATRDDVPRAVRTLAAAFADYPATRHTVDPDRHIERVTELQELFLTRVGLDIGKVWVADDGAAVAVWTTPESVEAGAVFAEIGPRMAELSGSRLAAQQQMEGLLAPHRPKEPAWFLATVGVSPDHQGKGLGSAVVLPGVEAAERAGVPAFLETSAPRNLPFYERLGFTVTADVEVPEGPRTWCMTRKPGA
- NFAT-GFP ASSAY: Raji (RAJI cells): + (refer to approximately 5%, 10%, 20%, 30%, 40% and 50% GFP positive cells)
- NFAT-GFP ASSAY: L363 (L363 cells): + (refer to approximately 5%, 10%, 20%, 30%, 40% and 50% GFP positive cells)
- NFAT-GFP ASSAY: Nalm6 (Nalm6 cells): +/- (refer to approximately 5%, 10%, 20%, 30%, 40% and 50% GFP positive cells)

B3: 22154 (protein)
chain: MALPVTALLLPLALLLHAARPACEVQLLESGGGLIQPGGSLRLSCAASGFTFSSHAMTWVRQAPGKGLEWVSAISGSGDYTHYADSVKGRFTISRDNSKNTVYLQMNSLRAEDSAVYYCAKDEDGGSLLGHRGQGTLVTVSSGTGGGGSGGGGSGGGGSEFSYVLTQPPSVSVAPGQTARITCGGNNIGGKSVHWYQQPPGQAPVVVVYDDSDRPSGIPERFSGSNSGNTATLTISRVEAGDEAVYYCQVWDSSSDHVVFGGGTKLTVLLEGQPKANPTVTLFPPSSEELQANKATLVCLISDFYPGAVTVAWKADGSPVKAGVETTKPSKQSNNKYAASSYLSLTPEQWKSHRSYSCQVTHEGSTVEKTVAPTECSGRADCGFTSESYQQGVLSATILYEILLGKATLYAVLVSALVLMAMVKRKDSRGRAKRSGSGATNFSLLKQAGDVEENPGPTSATMDWIWRILFLVGAATGAHSGPQVQLQESGGGLAQAGGSLRLSCAASGRTFSMGWFRQAPGKEREFVAAITYSGGSPYYASSVRGRFTISRDNAKNTVYLQMNSLKPEDTAVYYCAANPTYGSDWNAENWGQGTQVTVSSGSGGGGSGGGGSGGGGSFEQLQLQESGPGLVKPSETLSLTCTVSGGSISSSSYFWGWIRQPPGKGLEWIGSIYYSGITYYNPSLKSRVTISVDTSKNQFSLKLSSVTAADTAVYYCARHDGAVAGLFDYWGQGTLVTVSSATRASTKGPSVFPLAPSSKSTSGGTAALGCLVKDYFPEPVTVSWNSGALTSGVHTFPAVLQSSGLYSLSSVVTVPSSSLGTQTYICNVNHKPSNTKVDKRVEPKSCIPEDTFFPSPESSCDVKLVEKSFETDTNLNFQNLSVIGFRILLLKVAGFNLLMTLRLWSSRAKRSGSGVKQTLNFDLLKLAGDVESNPGPSRGHMTEYKPTVRLATRDDVPRAVRTLAAAFADYPATRHTVDPDRHIERVTELQELFLTRVGLDIGKVWVADDGAAVAVWTTPESVEAGAVFAEIGPRMAELSGSRLAAQQQMEGLLAPHRPKEPAWFLATVGVSPDHQGKGLGSAVVLPGVEAAERAGVPAFLETSAPRNLPFYERLGFTVTADVEVPEGPRTWCMTRKPGA
- NFAT-GFP ASSAY: Raji (RAJI cells): 4+ (refer to approximately 5%, 10%, 20%, 30%, 40% and 50% GFP positive cells)
- NFAT-GFP ASSAY: L363 (L363 cells): 2+ (refer to approximately 5%, 10%, 20%, 30%, 40% and 50% GFP positive cells)
- NFAT-GFP ASSAY: Nalm6 (Nalm6 cells): + (refer to approximately 5%, 10%, 20%, 30%, 40% and 50% GFP positive cells)

B4: 22066 (protein)
chain: MALPVTALLLPLALLLHAARPQLQLQESGPGLVKPSETLSLTCTVSGDSISSGDYYWGWIRQPPGKGLEWIGHIYYSGVTYYNPSLKSRVTISVDTSRNQFSLKLSSVTAADTAVYYCTREDSSNWRSRGQGTLVTVSSLEVAALEREDLKNVFPPEVAVFEPSEAEISHTQKATLVCLATGFYPDHVELSWWVNGKEVHSGVCTDPQPLKEQPALNDSRYCLSSRLRVSATFWQNPRNHFRCQVQFYGLSENDEWTQDRAKPVTQIVSAEAWGRADCGFTSESYQQGVLSATILYEILLGKATLYAVLVSALVLMAMVKRKDSRGRAKRSGSGATNFSLLKQAGDVEENPGPTSMDWIWRILFLVGAATGAHSFEVQLLESGGGLIQPGGSLRLSCAASGFTFSSHAMTWVRQAPGKGLEWVSAISGSGDYTHYADSVKGRFTISRDNSKNTVYLQMNSLRAEDSAVYYCAKDEDGGSLLGHRGQGTLVTVSSTRIQNPDPAVYQLRDSKSSDKSVCLFTDFDSQTNVSQSKDSDVYITDKCVLDMRSMDFKSNSAVAWSNKSDFACANAFNNSIIPEDTFFPSPESSCDVKLVEKSFETDTNLNFQNLSVIGFRILLLKVAGFNLLMTLRLWSSRAKRSGSGVKQTLNFDLLKLAGDVESNPGPSRGHMTEYKPTVRLATRDDVPRAVRTLAAAFADYPATRHTVDPDRHIERVTELQELFLTRVGLDIGKVWVADDGAAVAVWTTPESVEAGAVFAEIGPRMAELSGSRLAAQQQMEGLLAPHRPKEPAWFLATVGVSPDHQGKGLGSAVVLPGVEAAERAGVPAFLETSAPRNLPFYERLGFTVTADVEVPEGPRTWCMTRKPGA
- NFAT-GFP ASSAY: Raji (RAJI cells): +/- (refer to approximately 5%, 10%, 20%, 30%, 40% and 50% GFP positive cells)
- NFAT-GFP ASSAY: L363 (L363 cells): +/- (refer to approximately 5%, 10%, 20%, 30%, 40% and 50% GFP positive cells)
- NFAT-GFP ASSAY: Nalm6 (Nalm6 cells): +/- (refer to approximately 5%, 10%, 20%, 30%, 40% and 50% GFP positive cells)
